From patent publication US20180280504A1, “GLYCAN-INTERACTING COMPOUNDS AND METHODS OF USE” (SIAMAB THERAPEUTICS, INC., priority 2014, published 2018)

B1: S3F: 3F1 variable domains combined with IgG2a constant domains; heavy chain SEQ ID NO: 63, light chain SEQ ID NO: 64 (antibody)
heavy: QVQLQQSDAELVKPGASVKISCKASGYTFTDHAIHWVKQKPEQGLDWIGYISPGNGDIKYNEKFKDKVTLTADKSSSTACMHLNSLTSEDSAVYFCKRSLLALDYWGQGTTLTVSSAKTTAPSVYPLAPVCGDTTGSSVTLGCLVKGYFPEPVTLTWNSGSLSSGVHTFPAVLQSDLYTLSSSVTVTSSTWPSQSITCNVAHPASSTKVDKKIEPRGPTIKPCPPCKCPAPNLLGGPSVFIFPPKIKDVLMISLSPIVTCVVVDVSEDDPDVQISWFVNNVEVHTAQTQTHREDYNSTLRVVSALPIQHQDWMSGKEFKCKVNNKDLPAPIERTISKPKGSVRAPQVYVLPPPEEEMTKKQVTLTCMVTDFMPEDIYVEWTNNGKTELNYKNTEPVLDSDGSYFMYSKLRVEKKNWVERNSYSCSVVHEGLHNHHTTKSFSRTPGK
light: DIVMTQSHKFMSTSVGDRVSITCKASQDVGTNIAWYQQKPGRSPKVLIYSASTRHTGVPDRFTGSGSGTDFTLTISNVQSEDLTDYFCQQYSSFPLTFGVGTKLELKRADAAPTVSIFPPSSEQLTSGGASVVCFLNNFYPKDINVKWKIDGSERQNGVLNSWTDQDSKDSTYSMSSTLTLTKDEYERHNSYTCEATHKTSTSPIVKSFNRNEC
B2: 10A5: anti-STn mouse monoclonal, IgG2c κ, from mouse #4406; VH SEQ ID NO: 6, VL SEQ ID NO: 7 (antibody, V domains shown)
VH: QVQLKESGPGLVAPSQSLSITCTVSGFSLTSYGVSWVRQPPGKGLEWLGVIWGDGSTNYHSSLISRLSISKDNSKSQVFLKLNSLQTDDTATYYCARAFVYWGQGTLVTVSA
VL: QIVLTQSPAIMSASPGEKVTMTCSASSSVSYIHWYQQKSGTSPKRWIYDTSKLASGVPARFSGSGSGTSYSLTISSMEAEDAATYYCQQWSSNPPMLTFGAGTKLELK
B3: 7G9: anti-STn mouse monoclonal, IgG2b κ, from mouse #4407; VH SEQ ID NO: 12, VL SEQ ID NO: 9 (antibody, V domains shown)
VH: QVQLKESGPGLVAPSQNLSITCTVSGFSLTSYGVNWVRQPPGKGLEWLGVIWGDGSTNYHSALISRLIISKENSKSQVFLKLNSLQTNDTATYYCTKGFVYWGQGTLVTVSA
VL: QIVLTQSPAIMSASPGEKVTMTCSASSSVSYMHWYQQKSGTSPKRWIFDTSKLASGVPARFSGSGSGTSYSLTISSMEAEDAATYYCQQWSSNLLTFGAGTKLELK
B4: 2D4: anti-STn mouse monoclonal, IgG2b κ, from mouse #4407; VH SEQ ID NO: 10, VL SEQ ID NO: 11 (antibody, V domains shown)
VH: QVQLQESGPGLVAPSQSLSITCTVSGFSLISYGVNWVRQPPGKGLEWLGVIWGDGSTNYQSALISRLIISKDNSKSQVFLKLNSLQTDDTATYYCTKGFAYWGQGTLVTVSA
VL: QIVLTQSPAIMSASPGEKVTMTCSASSSVSYMHWFQQKSGTSPKRWIYDTSKLASGVPARFSGSGSGTSYSLTISSMEAEDAATYYCQQWSSNLLTFGAGTKLELK
B5: 8C11: anti-STn mouse monoclonal, IgG2b κ, from mouse #4407; VH SEQ ID NO: 8, VL SEQ ID NO: 9 (antibody, V domains shown)
VH: QVQLKESGPGLVAPSQSLSITCTVSGFSLTSYGVSWVRQPPGKGLEWLGVIWGDGSTNYHSALISRLIISKDNSKSQVFLKLNSLQTDDTATYYCTKGFTYWGQGTLVTVSA
VL: QIVLTQSPAIMSASPGEKVTMTCSASSSVSYMHWYQQKSGTSPKRWIFDTSKLASGVPARFSGSGSGTSYSLTISSMEAEDAATYYCQQWSSNLLTFGAGTKLELK

Key:
MDA-MD-231 STn cells = assay: Antibody internalization by fluorescence microscopy cell counts, STn+ cells; assay type: cell-based, human; conditions: for Net cell counts of cells showing positive internalization: 10 μg/ml antibody; for level of internalization (comparison of antibodies): microscopy
Experimental: 6-well culture dishes were prepared with collagen-coated coverslips in the center of 4 wells of each dish. Wells were seeded with either 10^5 cells/well of MDA-MD-231 cells or with 10^6 cells/well of MDA-MD-231 STn cells (expressing STn) and cultured for 24 hours.
10 μg/ml antibody solutions were prepared in cell culture media. A separate solution was prepared for each of LA22 antibody (EMD Millipore, Burlington, Mass.) as a positive control for cell surface binding, S3F antibody (internal reagent) as a positive control for STn binding, 8C11, 2D4, 7G9, 10A5 and GB26.16 (QED Bioscience, San Diego, Calif.) as a negative control. Media were removed from wells and 100 μl of each antibody solution was added to separate coverslips. Coverslips were covered with parafilm and incubated for 30 minutes at 4° C. to allow antibody binding. Antibody solutions were removed by washing and fresh media was added to each well. Cells were incubated at 37° C. for 15, 30, 60 or 240 min to allow for antibody internalization.
After incubation, cells were prepared for microscopy. Cells were washed with PBS and fixed with paraformaldehyde fixation buffer (PFA) containing 3% paraformaldehyde and 2% sucrose in PBS for 15 minutes at room temperature. Cells were rinsed again in PBS and treated with blocking buffer made up of PBS with 1% bovine serum albumin (BSA) or with permeabilization buffer made up of blocking buffer with 0.1% TX-100. Cells were incubated in for 30 min at room temperature, rinsed in PBS and treated with secondary antibody (ALEXA FLUOR® 488-labeled goat-anti-mouse IgG) for 2 hours at room temperature. Cells were rinsed again in PBS and treated with DAPI nuclear stain for 5 min at room temperature in the dark. Cells were rinsed again in PBS and mounted for fluorescence microscopy.

OV-90 cells = assay: Cell viability assay with secondary antibody-drug conjugate (2° ADC), OV-90; assay type: cell-based; conditions: with 2° ADC Fab αMFc-CL-MMAF
Experimental: Cell viability assays are performed to screen anti-STn antibodies of the present invention in the presence and absence of secondary antibody-drug conjugates (2° ADCs). The purpose of the screen is to identify the ability of each anti-STn antibody to inhibit cell growth. Antibodies with potent cell growth inhibition are used to design direct antibody-drug conjugates (ADCs). Using such secondary antibody-drug conjugates (2° ADCs) in cell-based cytotoxic assays can quickly pre-screen many ADC candidates against tumor cells. Based on the assay, a naked antibody candidate is directly added to cells in the presence of a 2° ADC. Internalization of the mAb/2° ADC complex into cells that express a high density of the targeted antigen can achieve a dose-dependent drug release within the cells, causing a cytotoxic effect to kill the cells (e.g., tumor cells), while cells expressing a low density of the targeted antigen are not affected (e.g., normal cells).
To perform cell viability assays, cell lines described in the present application (MDA-MB-231 parental, MDA-MB-231-STn+, and OV-90) are prepared and cultured for the assays. The cell culture is optimized for cell density by plating different densities of cells (e.g., 2,000, 4,000 and 7,500 per well) on a 96-well plate and observing the cell growth for 96 hours. The plating condition in which cells reach around 90% confluence at the end of the 96 hours is identified and the optimal cell number is then used in the final viability assay.
Duplicate or triplicate cell plates for each cell line are used for testing each antibody candidate.
For cell viability assays, data points are collected for each antibody candidate with duplicates for each data point. […]
Cell viabilities are measured by Cell-Titer Glo luminescence based assays.
Three anti-STn monoclonal antibodies (anti-STn antibodies S3F, 7G9 and 2D4) and an anti-EGFR monoclonal antibody LA22 were tested for internalization. […] Cell viability was then measured using CellTitreGlo Luminescent Cell Viability Assay (Promega, Madison, Wis.).

Molecule	Net cell counts of cells showing positive internalization (MDA-MD-231 STn cells; 15 min at 37° C.)	Net cell counts of cells showing positive internalization (MDA-MD-231 STn cells; 30 min at 37° C.)	Net cell counts of cells showing positive internalization (MDA-MD-231 STn cells; 60 min at 37° C.)	Net cell counts of cells showing positive internalization (MDA-MD-231 STn cells; 4 hr at 37° C.)	Net cell counts of cells showing positive internalization (MDA-MD-231 STn cells; 4 hr, no perm)	activity in OV-90 cells (OV-90 cells)	level of internalization (comparison of antibodies) (MDA-MD-231 STn cells)
B1	426	410	350	259	276	modest activity	–
B2	267	346	75	93	97	–	–
B3	458	154	126	61	145	lack of effect	–
B4	1340	413	533	325	536	lack of effect	greatest levels of internalization
B5	934	297	122	49	160	–	greatest levels of internalization
